To fix the notation:
B1: CD98HC.04.063 (antibody, V domains shown)
VH: EVKLEESGGGLVQPGGSMILSCVASGFTFSNSWMNWVRQSPEKGLEWVAEIRLRSNNYATHYAESVKGRFTISRDDSKSTVYLQMNNLRAEDTGIYYCSRGDPGAYWGQGTLVTVSA
VL: DIQMTQSSSYLSVSLGNRVTITCKASDHIKNWLAWFQQKPGNAPRLLISGATILETGVPSRFSGSGSGKDYTLSITSLQTEDVATYYCQQYWSTPYTFGGGTKLEIK
notes: hybridoma IgG
B2: CD98HC.04.046 (antibody, V domains shown)
VH: QIQLVQSGPVLKKPGETVKISCKASGYTFTNFGMNWVKQAPGKGLKWMGWIDTYTREPTYVDDFKGRFAFSLETSVTTAYLQINDLKNEDSATYFCARGESHWYFDVWGAGTTVTVSS
VL: QIVLTQSPAIMSASLGERVTMTCIVSSSVSSSYLYWYQQKPGSSPKLWIYSTSILASGVPGRFSGSGSGTSYSLTISSMEAEDAATYYCHQYHRSPPTFGGGTKLEIK
notes: hybridoma IgG
B3: CD98HC.04.062 (antibody, V domains shown)
VH: EVQLVESGGDLVKPGGSLKLSCTASRFAFSTYDMSWVRQTPEKRLEWVAYISSGGGSTYFPDTVKGRFTISRDNAKNTLYLQMSSLKSEDTAMYYCARQDGHYPWFPYWGQGTLVTVSA
VL: DIVMSQSPSSLAVSVGEKVTMSCKSSQSLLYSGNQKTYLAWYQQKPGQSPKPLIYWASTRESGIPDRFTGSGSGTDFTLTISSVKAEDLAVYYCQQYYSYPPTFGAGTKLELK
notes: hybridoma IgG
B4: CD98HC.03.004 (antibody, V domains shown)
VH: DVQLQESGPGLVKPSQSLSLTCTVTGYSITNNYAWNWIRRFPGNKLEWMAYISYSGYTSYNPSLKSRISITRDTSKNQFFLQLNSVTTEDTATYYCTGYFYYYGGGSFDYWGQGTTLTVSS
VL: QAVVTQESALTTSPGETVTLTCRSSTGAVTTSNFANWVQEKPDHLFTGLIRGSNNRAPGVPARFSGSLIGDKAALTITGARTEDEAIYFCALWYSDHWVFGGGTKLTVL
notes: hybridoma IgG
B5: CD98HC.04.064 (antibody, V domains shown)
VH: QVQLQQPGAELVRPGASVKLSCKASGYTFTSYWMNWVRQRPGQGLEWIGLIDPSDSETHYNQMFKDRATLTVDKSSSTAYMQLSSLTSADPAVYYCARASYGKGYFDYWGQGTTLTVSS
VL: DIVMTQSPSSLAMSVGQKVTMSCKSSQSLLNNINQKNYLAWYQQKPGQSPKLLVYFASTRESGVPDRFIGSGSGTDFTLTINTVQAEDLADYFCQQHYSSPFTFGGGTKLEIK
notes: hybridoma IgG
B6: CD98HC.04.058 (antibody, V domains shown)
VH: QVQLQQSGAELVRPGVSVKISCKASGYTFTDHTMHWVKQSHARSLEWIGVISTYFGDASYNPKFKGKATMTVDKSSNTAYMELARLTSEDSAIYYCARVGGRLRLGYYFDYWGQGTTLTVSS
VL: NIMMTQSPSSLAVSAGEKVTMNCKSSQTVLYSSNQKNYLAWYQQKPGQSPKLLIYWASTRESGVPDRFTGSGSGTDFTLTISSVQVEDLAVYYCHQYLSSYTFGGGTKLEIK
notes: hybridoma IgG
B7: CD98HC.03.010 (antibody, V domains shown)
VH: EVQLQQSGTELVKPGASVKLSCTASGLDIKDTYLHWVKQRPEQGLEWIGKIDPANGNTKYNPKFQGKATITADTSSNTAYLQLSSLTSEDTAVHYCTTPYYSGSSYGDYWGQGTTLTVSS
VL: QIVLTQSPAIMSASPGEKVTLTCSASSSVSSSYLYWYQQKPGSSPKLWIYSTSNLASGVPARFSGSGSGTSYSLTISSMEAEDAASYFCHQWSRYPLTFGAGTKLELK
notes: hybridoma IgG
B8: CD98HC.04.045 (antibody, V domains shown)
VH: QIQLVQSGPELKKPGETVKISCKASGYSITNFGMNWVKQAPGKGLKWMGWVNTYTGEPTYADDFKGRFAFSLETSASTASLQINNLKNEDTATYFCTRSVITYTMDYWGQGTSVTVSS
VL: DIQLTQSPSSLSASLGERVSLTCRASQEISGYLSWLQQKPDGTIKRLIYAASTLDSGVPKRFSGSRSGSDYSLTISSLESEDFADYYCLQYASYPRTFGGGTKVEIK
notes: hybridoma IgG

T1 sequence (P02786 89-760 limits assumed): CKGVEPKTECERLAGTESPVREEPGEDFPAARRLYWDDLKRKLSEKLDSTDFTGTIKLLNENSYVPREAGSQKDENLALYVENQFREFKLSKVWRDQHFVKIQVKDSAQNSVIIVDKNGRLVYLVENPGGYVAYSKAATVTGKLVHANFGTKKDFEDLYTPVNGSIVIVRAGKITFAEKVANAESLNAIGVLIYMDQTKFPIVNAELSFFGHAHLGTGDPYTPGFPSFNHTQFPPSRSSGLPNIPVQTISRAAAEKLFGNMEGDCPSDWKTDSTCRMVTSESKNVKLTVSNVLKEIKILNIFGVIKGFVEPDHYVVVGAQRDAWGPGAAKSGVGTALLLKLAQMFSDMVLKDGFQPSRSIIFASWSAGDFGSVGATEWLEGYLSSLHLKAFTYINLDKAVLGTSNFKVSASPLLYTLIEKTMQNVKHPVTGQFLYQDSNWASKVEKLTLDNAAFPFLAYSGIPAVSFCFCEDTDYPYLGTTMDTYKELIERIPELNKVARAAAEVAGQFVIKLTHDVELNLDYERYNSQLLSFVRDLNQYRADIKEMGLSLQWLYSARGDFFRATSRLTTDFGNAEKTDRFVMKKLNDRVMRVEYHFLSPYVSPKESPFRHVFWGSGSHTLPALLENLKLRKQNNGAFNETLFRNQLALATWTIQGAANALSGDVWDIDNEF

One experiment concerns the target T1, Human TfR-AVI-His (control) (human, UniProt P02786 89-760).
T1 construct: control protein; also called Avi-His-tagged human TfR; human transferrin receptor
The experiment in a line: ELISA, hybridoma supernatant. The protocol:
(§1) Briefly, 96-well polystyrene plates were coated with 5 μg/ml of streptavidin (Thermo Fisher, Cat #PI21125) in coating buffer (0.05M carbonate buffer, pH 9.6, Sigma, Cat #C3041) overnight at 4° C. Coated plates were then blocked with ELISA diluent (PBS+0.5% BSA+0.05% Tween20) for one hour. Blocking buffer was removed and human, cyno, or mouse Avi-His-tagged CD98hc and Avi-His-tagged human TfR polypeptides were added at 1 μg/ml in ELISA diluent and captured for 1 hour at room temperature. After washing three times with 300 μl of PBST (PBS+0.05% Tween20, Thermo 28352), the hybridoma cell culture supernatants or 1 μg/ml of commercially available purified mouse anti-human CD98hc monoclonal antibody (Sigma Aldrich, Cat #SAB 4700503) and rat anti-mouse CD98hc antibody (Bio-Rad Laboratories, Hercules, CA, Cat #MCA2684) were added (50 μl/well) to each well. After 30 minutes of incubation at room temperature, the plates were washed three times with 300 μl of PBST. […] After a final set of washes (3×300 μl in PBST), 50 μl/well of BioFx TMB substrate (Surmodics, Eden Praire, MN, Cat #TMBW-1000-01) was added to the wells. The reaction was then quenched after 5-10 mins with 50 μl/well of 2N sulfuric acid. The plates were read for absorbance at 450 nm on a SpectraMax M5 (Molecular Devices, Sunnyvale, CA) using SoftMax Pro software.
(In an ELISA, binding on a coated surface is turned into a signal by an enzyme label.)
For the molecule B1, the OD450 was 0.0629.
Still for that read-out and setting: in the case of B2 it was 0.0719; in that of B3, 0.0561; in that of B4, 0.0905.
Consider B5, for which the OD450 was 0.0639.
In the case of B6, the OD450 came out at 0.0976.
Regarding B7, the OD450 amounted to 0.0588.
As to B8, the OD450 turned out to be 0.103.

Another experiment deals with T2, muCD98hc ECD Avi-His (mouse, UniProt P10852 100-526).
T2 construct: biotinylated on the Avi tag where captured on streptavidin; also called Mouse CD98-AVI-His; Mouse CD98hc-AVI-His
T2 sequence: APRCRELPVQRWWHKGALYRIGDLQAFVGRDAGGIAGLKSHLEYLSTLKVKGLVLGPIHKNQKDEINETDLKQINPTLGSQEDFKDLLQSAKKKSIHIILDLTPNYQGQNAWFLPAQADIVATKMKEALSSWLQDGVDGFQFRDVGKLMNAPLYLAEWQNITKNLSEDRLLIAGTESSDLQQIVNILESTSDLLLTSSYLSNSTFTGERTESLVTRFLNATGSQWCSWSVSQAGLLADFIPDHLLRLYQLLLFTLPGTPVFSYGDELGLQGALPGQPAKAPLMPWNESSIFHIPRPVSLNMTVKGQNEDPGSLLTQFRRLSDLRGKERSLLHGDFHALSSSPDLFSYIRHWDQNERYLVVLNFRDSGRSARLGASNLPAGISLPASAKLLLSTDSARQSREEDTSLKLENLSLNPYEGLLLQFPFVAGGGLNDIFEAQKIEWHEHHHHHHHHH
Briefly: ELISA, hybridoma supernatant. The protocol:
as §1
Take B1: the OD450 came out at 0.0738.
As to B2, the OD450 was determined as 0.0817.
As for B3, the OD450 was 0.0607.
In turn, B4 showed an OD450 of 0.0938.
The same measure, in the same setting: in the case of B5 it was 0.073; in that of B6, 0.121.
Molecule B7 came in with an OD450 of 0.0625.
Still for that read-out and setting: in the case of B8 it was 0.0764.

Another experiment concerns the target T3, huCD98hc ECD Avi-His (human, UniProt P08195 105-529).
T3 construct: biotinylated on the Avi tag where captured on streptavidin; also called Human CD98-AVI-His; Human CD98hc-AVI-His
T3 sequence: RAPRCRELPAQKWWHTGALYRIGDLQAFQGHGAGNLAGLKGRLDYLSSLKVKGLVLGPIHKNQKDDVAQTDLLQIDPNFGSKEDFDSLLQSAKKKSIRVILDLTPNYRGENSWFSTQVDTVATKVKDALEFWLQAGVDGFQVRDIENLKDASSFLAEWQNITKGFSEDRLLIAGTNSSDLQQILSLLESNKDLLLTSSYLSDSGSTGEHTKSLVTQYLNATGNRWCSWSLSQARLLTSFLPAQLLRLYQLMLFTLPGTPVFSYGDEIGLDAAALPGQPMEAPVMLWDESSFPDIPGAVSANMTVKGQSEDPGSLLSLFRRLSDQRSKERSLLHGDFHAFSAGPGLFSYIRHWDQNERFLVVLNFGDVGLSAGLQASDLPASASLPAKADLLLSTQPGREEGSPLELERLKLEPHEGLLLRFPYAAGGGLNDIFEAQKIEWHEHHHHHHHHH
The experiment in a line: ELISA, hybridoma supernatant. How it is done:
as §1
As for B1, the OD450 turned out to be 1.66.
The same measure, in the same setting: to B2 belongs 1.38.
For B3, the OD450 worked out at 1.61.
B4 came in with an OD450 of 1.49.
Regarding B5, the OD450 came out at 1.7.
In turn, B6 gave an OD450 of 1.34.
Same read-out and setting: in the case of B7 it was 1.
As to B8, the OD450 was found to be 1.51.

In the next experiment the target is T4, Cyno CD98hc ECD Avi-His (cynomolgus macaque, UniProt P08195 105-529 (human entry)).
T4 construct: biotinylated on the Avi tag where captured on streptavidin; also called Cyno CD98-AVI-His; Cyno CD98hc-AVI-His
T4 chain: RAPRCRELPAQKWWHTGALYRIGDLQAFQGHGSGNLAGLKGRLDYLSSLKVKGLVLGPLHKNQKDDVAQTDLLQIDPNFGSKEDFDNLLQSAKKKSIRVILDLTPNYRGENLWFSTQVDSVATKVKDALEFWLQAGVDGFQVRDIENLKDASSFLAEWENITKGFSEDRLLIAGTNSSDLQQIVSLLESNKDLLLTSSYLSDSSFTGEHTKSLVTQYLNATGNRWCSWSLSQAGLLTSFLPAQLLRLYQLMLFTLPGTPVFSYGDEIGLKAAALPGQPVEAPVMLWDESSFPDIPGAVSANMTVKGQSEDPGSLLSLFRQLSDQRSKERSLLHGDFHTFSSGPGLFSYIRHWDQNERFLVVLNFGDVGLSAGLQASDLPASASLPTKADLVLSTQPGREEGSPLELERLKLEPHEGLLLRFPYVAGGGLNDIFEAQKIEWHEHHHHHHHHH
The experiment in a line: ELISA, hybridoma supernatant. The protocol: as §1
The molecule B1 gave an OD450 of 1.91.
Turning to B2, the OD450 worked out at 1.88.
Same read-out and setting: in the case of B3 it was 1.63; in that of B4, 1.4.
The same measure, in the same setting: in the case of B5 it was 1.76; in that of B6, 1.73; in that of B7, 1.77.
In turn, B8 returned an OD450 of 1.34.

For the origin of these results see patent publication US20250270341A1 (Alector, published 2025).
